B1: IQ2 peptide of KCNQ2 (508–530) (peptide)
peptide: SIRAVCVMRFLVSKRKFKESLR
B2: IQ2 peptide of KCNQ3 (481–503) (peptide)
peptide: AIRAVRILQFRLYKKKFKETLR

Molecular target: purified recombinant vertebrate CaM ( ("vertebrate"), UniProt P0DP23 1-149)
Assay: native gel or EMSA

Row | Binder | binding result
1 | B1 | binds
2 | B2 | binds
